Measured values taken from publication PMC10786891, “Massively parallel profiling of RNA-targeting CRISPR-Cas13d”.
Numbering of substitutions follows the chain as printed. Names may count otherwise.

B1: target 1 MT 5'PFS GUG 3'PFS CGC (mixed)
RNA 1: CACCCGUGCAAAAAUGCAGGGGUCUAAAACUGAGCGGAUAACCUCUCUAUGG
RNA 2: GGGAAUGGAUCCACAUCUACGAAUUCGUGCCAUAGAGAGGUUAUCCGCUCACGCAGAUCGGAAGAGCACACGU
B2: target 1 insC 3' of 17,insC 3' of 10 (mixed)
RNA 1: B1 RNA 1
RNA 2: GGGAAUGGAUCCACAUCUACGAAUUCGUACCAUAGCAGAGGUUCAUCCGCUCACCGAGAUCGGAAGAGCACACGU
B3: target 1 MT 5'PFS GUG 3'PFS AGU (mixed)
RNA 1: B1 RNA 1
RNA 2: B1 RNA 2 with C52A, C54U
B4: target 1 MT 5'PFS GUG 3'PFS CGG (mixed)
RNA 1: B1 RNA 1
RNA 2: B1 RNA 2 with C54G
B5: target 1 MT 5'PFS GUG 3'PFS AGG (mixed)
RNA 1: B1 RNA 1
RNA 2: B1 RNA 2 with C52A, C54G
B6: target 1 MT 5'PFS GUG 3'PFS AGC (mixed)
RNA 1: B1 RNA 1
RNA 2: B1 RNA 2 with C52A
B7: target 1 MT 5'PFS GUG 3'PFS CGU (mixed)
RNA 1: B1 RNA 1
RNA 2: B1 RNA 2 with C54U
B8: target 1 MT 5'PFS UAC 3'PFS CGG (mixed)
RNA 1: B1 RNA 1
RNA 2: B1 RNA 2 with G27U, U28A, G29C, C54G
B9: target 1 MT 5'PFS UGG 3'PFS AGU (mixed)
RNA 1: B1 RNA 1
RNA 2: B1 RNA 2 with G27U, U28G, C52A, C54U
B10: target 1 MT 5'PFS GGC 3'PFS CCC (mixed)
RNA 1: B1 RNA 1
RNA 2: B1 RNA 2 with U28G, G29C, G53C
B11: target 1 MT 5'PFS GCA 3'PFS AGA (mixed)
RNA 1: B1 RNA 1
RNA 2: B1 RNA 2 with U28C, G29A, C52A, C54A
B12: target 1 MT 5'PFS GCA 3'PFS AGG (mixed)
RNA 1: B1 RNA 1
RNA 2: B1 RNA 2 with U28C, G29A, C52A, C54G
B13: target 1 G13A,C22U (mixed)
RNA 1: B1 RNA 1
RNA 2: B1 RNA 2 with G29A, C30U, G39A, G53C, C54G
B14: target 1 MT 5'PFS UAU 3'PFS CUU (mixed)
RNA 1: B1 RNA 1
RNA 2: B1 RNA 2 with G27U, U28A, G29U, G53U, C54U
B15: target 1 MT 5'PFS GCA 3'PFS AGU (mixed)
RNA 1: B1 RNA 1
RNA 2: B1 RNA 2 with U28C, G29A, C52A, C54U
B16: target 1 MT 5'PFS AAC 3'PFS UAC (mixed)
RNA 1: B1 RNA 1
RNA 2: B1 RNA 2 with G27A, U28A, G29C, C52U, G53A
B17: target 1 MT 5'PFS UAA 3'PFS UGC (mixed)
RNA 1: B1 RNA 1
RNA 2: B1 RNA 2 with G27U, U28A, G29A, C52U
B18: target 1 MT 5'PFS CUA 3'PFS UCU (mixed)
RNA 1: B1 RNA 1
RNA 2: B1 RNA 2 with G27C, G29A, C52U, G53C, C54U
B19: target 1 MT 5'PFS UGC 3'PFS CUA (mixed)
RNA 1: B1 RNA 1
RNA 2: B1 RNA 2 with G27U, U28G, G29C, G53U, C54A
B20: target 1 MT 5'PFS UGC 3'PFS CUG (mixed)
RNA 1: B1 RNA 1
RNA 2: B1 RNA 2 with G27U, U28G, G29C, G53U, C54G
B21: target 1 MT 5'PFS AAC 3'PFS UAU (mixed)
RNA 1: B1 RNA 1
RNA 2: B1 RNA 2 with G27A, U28A, G29C, C52U, G53A, C54U
B22: target 1 MT 5'PFS UCA 3'PFS AAA (mixed)
RNA 1: B1 RNA 1
RNA 2: B1 RNA 2 with G27U, U28C, G29A, C52A, G53A, C54A
B23: target 1 MT 5'PFS UCA 3'PFS AAC (mixed)
RNA 1: B1 RNA 1
RNA 2: B1 RNA 2 with G27U, U28C, G29A, C52A, G53A
B24: target 1 insC 3' of 20,insG 3' of 18 (mixed)
RNA 1: B1 RNA 1
RNA 2: GGGAAUGGAUCCACAUCUACGAAUUCGUACCACUAGGAGAGGUUAUCCGCUCACCGAGAUCGGAAGAGCACACGU
B25: target 1 MT 5'PFS UCA 3'PFS AAG (mixed)
RNA 1: B1 RNA 1
RNA 2: B1 RNA 2 with G27U, U28C, G29A, C52A, G53A, C54G
B26: target 1 MT 5'PFS UCA 3'PFS AAU (mixed)
RNA 1: B1 RNA 1
RNA 2: B1 RNA 2 with G27U, U28C, G29A, C52A, G53A, C54U
B27: target 1 MT 5'PFS AGU 3'PFS AAG (mixed)
RNA 1: B1 RNA 1
RNA 2: B1 RNA 2 with G27A, U28G, G29U, C52A, G53A, C54G
B28: target 1 MT 5'PFS AGU 3'PFS AAA (mixed)
RNA 1: B1 RNA 1
RNA 2: B1 RNA 2 with G27A, U28G, G29U, C52A, G53A, C54A
B29: target 1 MT 5'PFS AGU 3'PFS AAC (mixed)
RNA 1: B1 RNA 1
RNA 2: B1 RNA 2 with G27A, U28G, G29U, C52A, G53A
B30: target 1 MT 5'PFS AAG 3'PFS CGA (mixed)
RNA 1: B1 RNA 1
RNA 2: B1 RNA 2 with G27A, U28A, C54A
B31: target 1 MT 5'PFS AAG 3'PFS CGG (mixed)
RNA 1: B1 RNA 1
RNA 2: B1 RNA 2 with G27A, U28A, C54G
B32: target 1 MT 5'PFS AUG 3'PFS CUC (mixed)
RNA 1: B1 RNA 1
RNA 2: B1 RNA 2 with G27A, G53U
B33: target 1 MT 5'PFS GUA 3'PFS UGG (mixed)
RNA 1: B1 RNA 1
RNA 2: B1 RNA 2 with G29A, C52U, C54G
B34: target 1 MT 5'PFS GUA 3'PFS UGA (mixed)
RNA 1: B1 RNA 1
RNA 2: B1 RNA 2 with G29A, C52U, C54A
B35: target 1 A9U,U11A (mixed)
RNA 1: B1 RNA 1
RNA 2: B1 RNA 2 with G29A, U41A, A43U, G53C, C54G
B36: target 1 U10A,U11G (mixed)
RNA 1: B1 RNA 1
RNA 2: B1 RNA 2 with G29A, U41G, U42A, G53C, C54G
B37: target 1 MT 5'PFS GUA 3'PFS UGC (mixed)
RNA 1: B1 RNA 1
RNA 2: B1 RNA 2 with G29A, C52U
B38: target 1 MT 5'PFS UGU 3'PFS AUA (mixed)
RNA 1: B1 RNA 1
RNA 2: B1 RNA 2 with G27U, U28G, G29U, C52A, G53U, C54A
B39: target 1 MT 5'PFS CUU 3'PFS CUG (mixed)
RNA 1: B1 RNA 1
RNA 2: B1 RNA 2 with G27C, G29U, G53U, C54G
B40: target 1 MT 5'PFS CUU 3'PFS CUA (mixed)
RNA 1: B1 RNA 1
RNA 2: B1 RNA 2 with G27C, G29U, G53U, C54A

The binders below were run against T1, EsCas13d, nuclease-dead (Eubacterium siraeum, UniProt B0MS50, R295A;H300A;R849A;H854A) (assay: crRNA (strand 1, pre-loaded); Mg2+; 40 mM Tris-HCl pH 7.5, 150 mM NaCl, 6 mM MgCl2, 1 mM DTT, 0.1% Tween-20, 0.2 mg/ml BSA; 25 C; 10 min per concentration, then washed). Settings: tags: His6-TwinStrep-SUMO cleaved; N-terminal SNAP kept (SNAP-Surface 488); label: 3' end held by stalled T7 RNA polymerase.
T1 sequence: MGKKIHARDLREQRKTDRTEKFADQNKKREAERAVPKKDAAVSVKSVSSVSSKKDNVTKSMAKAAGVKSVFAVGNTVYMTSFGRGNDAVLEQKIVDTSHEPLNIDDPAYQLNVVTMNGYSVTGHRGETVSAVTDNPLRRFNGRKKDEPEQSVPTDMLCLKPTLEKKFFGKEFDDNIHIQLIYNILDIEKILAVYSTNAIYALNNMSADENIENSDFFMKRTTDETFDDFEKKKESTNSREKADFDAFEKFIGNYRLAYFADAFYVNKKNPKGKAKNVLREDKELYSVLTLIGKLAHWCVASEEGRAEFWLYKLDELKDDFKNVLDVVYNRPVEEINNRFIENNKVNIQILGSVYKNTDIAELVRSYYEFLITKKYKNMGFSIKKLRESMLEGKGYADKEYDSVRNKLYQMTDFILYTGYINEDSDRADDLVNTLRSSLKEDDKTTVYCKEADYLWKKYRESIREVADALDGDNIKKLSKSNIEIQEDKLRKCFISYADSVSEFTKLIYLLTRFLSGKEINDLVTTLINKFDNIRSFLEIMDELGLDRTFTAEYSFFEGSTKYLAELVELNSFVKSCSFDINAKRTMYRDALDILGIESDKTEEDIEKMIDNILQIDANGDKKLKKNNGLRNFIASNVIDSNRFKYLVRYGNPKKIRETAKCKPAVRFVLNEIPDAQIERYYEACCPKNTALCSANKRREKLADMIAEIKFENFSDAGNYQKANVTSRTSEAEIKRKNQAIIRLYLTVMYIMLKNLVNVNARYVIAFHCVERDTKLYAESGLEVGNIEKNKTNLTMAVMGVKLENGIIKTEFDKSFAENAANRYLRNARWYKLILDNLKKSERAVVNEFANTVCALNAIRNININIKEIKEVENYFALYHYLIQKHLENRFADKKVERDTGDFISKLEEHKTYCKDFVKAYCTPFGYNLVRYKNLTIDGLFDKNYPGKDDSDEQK

| Binder | Kd [nM] |
| --- | --- |
| B1 | 22.6 ± 1.7 |
| B2 | 52 ± 18 |
| B3 | 11.4 ± 0.8 |
| B4 | 23.4 ± 1.85 |
| B5 | 28.7 ± 1.75 |
| B6 | 9.45 ± 0.75 |
| B7 | 6.83 ± 0.425 |
| B8 | 44.5 ± 21 |
| B9 | 67 ± 33 |
| B10 | ~25 |
| B11 | 22.5 ± 4.15 |
| B12 | 43.5 ± 10 |
| B13 | 10.7 ± 1.7 |
| B14 | 39.5 ± 12.5 |
| B15 | 23 ± 5 |
| B16 | 31 ± 13 |
| B17 | 31 ± 8 |
| B18 | 4.9 ± 0.7 |
| B19 | 18 ± 7 |
| B20 | 13.2 ± 2.8 |

| Binder | Kd [nM] |
| --- | --- |
| B21 | 15 ± 5.5 |
| B22 | 21 ± 9 |
| B23 | 18.6 ± 5.7 |
| B24 | 12.9 ± 0.8 |
| B25 | ~70 |
| B26 | 19.2 ± 6.35 |
| B27 | 55 ± 24 |
| B28 | ~100 |
| B29 | 49 ± 16 |
| B30 | 38 ± 16 |
| B31 | 41 ± 12.5 |
| B32 | 21.1 ± 5.75 |
| B33 | 58.5 ± 7.5 |
| B34 | 11.2 ± 0.65 |
| B35 | 23.4 ± 1.1 |
| B36 | 11.6 ± 0.5 |
| B37 | 5.68 ± 0.46 |
| B38 | 62.5 ± 23 |
| B39 | 41 ± 19 |
| B40 | 29.5 ± 12.5 |
